Measured values from the supplement of paper PMC12042874.
± gives the uncertainty stated by the source.

Assay: amyloid nucleation score (Sup35N fusion, yeast selection) (log enrichment); library NNK1; higher = more nucleation; inactive = no reads after selection
Outline: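 The nucleation score is a DiMSum log enrichment of output over input reads, centred on the mode score of non-aggregating sequences. Sequences under 100 input reads were excluded, and reads came from Illumina sequencing of plasmid inserts. Psi-negative yeast expressing Sup35N fused to peptides of 20 random codons were induced with 100 μM copper sulfate for 24 hours and grown 7 days at 30°C on medium lacking adenine and uracil. Random libraries had three technical output replicates.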

Substance | amyloid nucleation score
RGNACVT | 0.598 ± 0.34
AYVKLILCLCRNLDWK | 2.98 ± 0.24
LESQNHTFLRFIPKAALRIL | 0.067 ± 0.47
TLGSIGLAIGRSTTGGRS | 0.51 ± 0.9
GEFAYSMVQGHYRIMLMSLK | 1.49 ± 0.68
TYLVILR | 0.33 ± 0.39
NVYLMKLDWTIKMWWA | 0.638 ± 0.69
TVGSLRAW | 1.15 ± 0.62
AAPLNMCLANTGFAQFLTSI | -0.618 ± 1.2
FQVVFGYSFMNMATISCVYE | 5.03 ± 0.054
YTAMFCNSVLHADGLPQLMG | -0.033 ± 0.97
ARLLSQVEAEASWSNTY | 0.568 ± 0.43
MYQVHTVSTVKIEMAYHAQG | 1.67 ± 0.26
CFLSLVWQHGHWWEGLESRL | 0.714 ± 0.53
YPTPLQVFVRSRFDRRI | -0.132 ± 0.26
